Results: patent US20260174875A1 (Novo Nordisk A/S, priority 2023, published 2026)
Numbered stars: 1 amine (or outer) side, 2 acyl side, 3 side chain; on linkers, the order of the positions; unused ones are H or OH. Square brackets hold non-standard residues; d marks the D form. Side chains are listed from the residue outwards. * marks the point of attachment. C20 diacid = O=C(O)CCCCCCCCCCCCCCCCCCC(=O)*; C18 diacid = O=C(O)CCCCCCCCCCCCCCCCC(=O)*; C16 diacid = O=C(O)CCCCCCCCCCCCCCC(=O)*; γGlu = O=C(O)[C@H](CCC(=O)[*:2])N[*:1]; Chem. 27 = not defined here; Chem. 28 = not defined here; Chem. 29 = not defined here; AEEA = NCCOCCOCC(=O)O; Aib = CC(C)(N)C(=O)O

How the values were obtained:
Assay in all cases: cell-based or functional assay
[1] = target: T1, human GLP-1 receptor (human, UniProt P43220 24-463)
[2] = target: T2, human amylin-3(a) receptor (human, UniProt P30988 25-474; O60896 24-148)
T2 sequence (looked up) 1: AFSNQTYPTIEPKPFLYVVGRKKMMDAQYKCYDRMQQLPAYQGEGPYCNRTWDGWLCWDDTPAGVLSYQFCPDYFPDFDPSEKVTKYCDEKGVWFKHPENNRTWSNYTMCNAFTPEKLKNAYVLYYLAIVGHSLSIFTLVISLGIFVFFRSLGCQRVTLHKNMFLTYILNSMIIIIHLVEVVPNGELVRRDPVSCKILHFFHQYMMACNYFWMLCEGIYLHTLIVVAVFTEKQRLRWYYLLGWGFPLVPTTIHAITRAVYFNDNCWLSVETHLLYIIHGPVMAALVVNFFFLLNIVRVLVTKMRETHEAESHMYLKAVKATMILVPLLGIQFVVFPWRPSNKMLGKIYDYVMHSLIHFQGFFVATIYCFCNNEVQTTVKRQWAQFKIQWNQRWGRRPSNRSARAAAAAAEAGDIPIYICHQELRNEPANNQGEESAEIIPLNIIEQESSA
T2 sequence (looked up) 2: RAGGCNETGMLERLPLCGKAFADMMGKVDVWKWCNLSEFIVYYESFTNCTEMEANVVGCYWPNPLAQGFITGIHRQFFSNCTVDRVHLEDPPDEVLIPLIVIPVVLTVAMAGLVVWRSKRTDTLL

[3] = target: T3, human GIP receptor (human, UniProt P48546 22-466)
T3 sequence (looked up): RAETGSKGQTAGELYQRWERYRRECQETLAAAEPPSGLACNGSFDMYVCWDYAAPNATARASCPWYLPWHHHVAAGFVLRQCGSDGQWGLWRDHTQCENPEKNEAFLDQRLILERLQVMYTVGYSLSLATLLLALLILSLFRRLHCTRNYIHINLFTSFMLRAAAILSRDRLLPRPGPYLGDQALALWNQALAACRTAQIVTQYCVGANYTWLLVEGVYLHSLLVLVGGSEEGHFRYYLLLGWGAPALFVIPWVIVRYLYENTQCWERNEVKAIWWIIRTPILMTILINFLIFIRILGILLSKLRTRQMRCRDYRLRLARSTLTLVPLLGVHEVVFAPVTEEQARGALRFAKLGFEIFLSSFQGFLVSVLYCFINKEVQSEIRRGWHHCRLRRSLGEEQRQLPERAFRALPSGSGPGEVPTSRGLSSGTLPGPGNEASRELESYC

[4] = target: T1, human GLP-1 receptor; remark: listed apart in the source
[5] = target: T2, human amylin-3(a) receptor; remark: listed apart in the source
[6] = target: T3, human GIP receptor; remark: listed apart in the source

Binder	hGLP-1R Potency, no HSA, EC50 [pM] [1] [pM]	hAMYR3 Potency, no HSA, EC50 [pM] [2] [pM]	hGIPR Potency, no HSA, EC50 [pM] [3] [pM]	hGLP-1R Potency, 1% HSA, EC50 [pM] [4] [pM]	hAMYR3 Potency, 1% HSA, EC50 [pM] [5] [pM]	hGIPR Potency, 1% HSA, EC50 [pM] [6] [pM]
Compound 12 (peptide) peptide: H[Aib]HGTFTSDYSILLEEQAAREFIEWLLAGGPSK([AEEA-AEEA-γGlu-C16 diacid])GAPPPSGGGEASELSTAALGRLSAELHELATLPRTETGSGSP-NH2	0.8	6.23	2.62	10.2	55	59.1
Compound 108 (reading uncertain) peptide: H[Aib]HGTFTSDYSILLEEQAAREFIEWLLAGGPSSGALQAPGQAPLASHLSTAQTARLSAELHK(Chem. 28)LATLPRTETGSGSP-NH2	4.57	2.48	4.01	15	60	11.4
Compound 109 (not fully specified; reading uncertain) peptide: Y[Aib]EGTFTSDYSILLEEQAAREFIEWLLAGGPSSGAPPPSGGGEASHLSTAQTQRLSAK(Chem. 28)LHRLATLPRTETGSGSP-NH2	68.9	3.65	7.42	94.7	32	17.4
Compound 102 (reading uncertain) peptide: Y[Aib]EGTFTSDYSILLEEQAAREFIEWLLAGGPSSGAGQAPGQAPGASHLSTAQTQRLSAELHQLK(Chem. 28)TLPRTETGSGSP-NH2	11	3.26	2.24	47	134	12.2
Compound 11 (reading uncertain) peptide: Y[Aib]EGTFTSDYSILLEEQAAREFIEWLLAGGPSK(Chem. 29)GEASELSTAALGRLSAELHELATLPRTETGSGSP-NH2	10.4	12.8	1.69	204	211	58.3
Compound 105 (reading uncertain) peptide: Y[Aib]EGTFTSDYSILLEEQAAREFIEWLLAGGPSSGALQAPGQAPLASHLSTAQTARLSAELHK(Chem. 28)LATLPRTETGSGSP-NH2	12.6	2.88	3.08	48.9	113	12.5
Compound 114 (peptide) peptide: Y[Aib]EGTFTSDYSILLEEQAAREFIEWLLAGGPSSGAGQAPGQAPGASHLSTAALARLSAELHK([AEEA-AEEA-γGlu-C18 diacid])LATLPRTETGSGSP-NH2	43.3	2.27	4.29	126	45.2	17.2
Compound 112 (peptide) peptide: H[Aib]HGTFTSDYSILLEEQAAREFIEWLLAGGPSK([γGlu-C18 diacid])GAPPPSGGGEASHLSTAQTARLSAELHRLADLPRTETGSGSP-NH2	4.37	3.65	2.42	336	269	321
Compound 14 (peptide) peptide: H[Aib]HGTFTSDYSILLEEQAAREFIEWLLAGGPSK([AEEA-AEEA-γGlu-C18 diacid])GAPPPSGGGGASELSTAALGRLSAELHRLATLPRTETGSGSP-NH2	2.05	2.21	5.84	75.9	33.4	254
Compound 111 (peptide) peptide: Y[Aib]EGTFTSDYSILLEEQAAREFIEWLLAGGPSSGAGQAPGQAPGASHLSTAQTQRLSAELHRLK([AEEA-AEEA-AEEA-γGlu-C18 diacid])TLPRTETGSGSP-NH2	15.9	3.33	3.66	34.8	66.4	12.2
Compound 104 (reading uncertain) peptide: H[Aib]HGTFTSDYSILLEEQAAREFIEWLLAGGPSSGAGQAPGQAPGASHLSTAQTARLSAELHK(Chem. 27)LATLPRTETGSGSP-NH2	4.16	1.49	3.57	19.1	293	17.3
Compound 106 (reading uncertain) peptide: H[Aib]HGTFTSDYSILLEEQAAREFIEWLLAGGPSSGALQAPGQAPGASHLSTAQTARLSAELHRLK(Chem. 28)TLPRTETGSGSP-NH2	3.33	2.07	4.8	11.1	31.2	10.3
Compound 101 (reading uncertain) peptide: H[Aib]HGTFTSDYSILLEEQAAREFIEWLLAGGPSK(Chem. 28)GAPPPSGGGEASHLSTAQTARLSAELHQLATLPRTETGSGSP-NH2	3.24	3.08	1.87	179	95.5	129
Compound 103 (reading uncertain) peptide: H[Aib]HGTFTSDYSILLEEQAAREFIEWLLAGGPSSGAGQAPGQAPGASHLSTAQTARLSAELHK(Chem. 28)LATLPRTETGSGSP-NH2	5.24	2.42	3.14	33.1	73.6	13.3
Compound 113 (peptide) peptide: Y[Aib]EGTFTSDYSILLEEQAAREFIEWLLAGGPSSGAGQAPGQAPGASHLSTAQTARLSAELHK([AEEA-AEEA-γGlu-C18 diacid])LATLPRTETGSGSP-NH2	14.4	2.53	2.02	57.5	136	8.96
Compound 110 (not fully specified) peptide: Y[Aib]EGTFTSDYSILLEEQAAREFIEWLLAGGPSSGAPPPSGGGEASHLSTAQTQRLSAK([AEEA-AEEA-γGlu-C20 diacid])LHRLATLPRTETGSGSP-NH2	107	3.27	8.01	169	94	29.3
Compound 107 (reading uncertain) peptide: H[Aib]HGTFTSDYSILLEEQAAREFIEWLLAGGPSSGALQAPGQAPGASHLSTAQTARLSAELHRLATLPK(Chem. 28)TETGSGSP-NH2	4.1	3.07	3.87	13.9	93.1	8.76
